This series can be described thus: yeast display, Sf9 membrane polyspecificity reagent, FACS + sequencing; frameworks hold sequencing errors. In outline:
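After 36–48 hours of galactose induction, yeast (Saccharomyces cerevisiae BJ5465) displaying a synthetic nanobody library were stained at 4 °C for 1 hour with 10% biotinylated, detergent-solubilized Sf9 membrane reagent. Streptavidin microbeads enriched the stained cells before FACS sorting into low and high (top ~1%) gates on anti-HA and streptavidin fluorescence. Each clone's polyreactivity label reflects its gate of origin.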
Regarding “QVQLVESGGGLVQAGGSLRLSSAASGSTFLRYAMGWYRQAPGKERELVAAISYSGGSTYYADSVKGRFTISRDNAKNTVYLQMNSLIPQDTAVNYCNAGVFANDNGGRRDHFTWEYEYWGQGTQVTVSS”, the “polyreactivity (PSR sort gate)” value is recorded as “low polyreactivity”. As for “QVQLVESGGGLVQAGGSLRLSSAASGSTFRYNTMGWYRQAPGKERELVAAINISSSSTYYADSVKGRFTISRDNAKNTVYFQINSLKPEDTAVYYCAKRDYVPIATDENDDYWGQGTQVTVSS”, the entry is “low polyreactivity”.

With “QVQLVESGGGLVQAGGSLRLSSAASGSTFSDYAMGWYRQAPGKERELVAAISVSDGSTYYADSVKGRFTISRDNAKNTVYLQMNSLKPEDTAVYYCAAEYPYFVYSYFRFDYWGQGTQVTVSS”, the “polyreactivity (PSR sort gate)” value is “low polyreactivity”.

“QVQLVESGGGLVQAGGSLRLSSAASGSTFTRNGMGWYRQAPGKERELVAVISGSSSSTYYADSVKGRFTISRDNAKNTVYLQMNSLKPEDTAVYYCAARRYYGYAQYYYWGQGTQVTVSS”: the “polyreactivity (PSR sort gate)” value was “high polyreactivity”. Take “QVQLVESGGGLVQAGGSLRLSSAASGSTFVVNAMGWYRQAPGKERELVAAITQSGGSTFYADSVKGRFTISRDNAKNTVYLQMNSLKPEDTAVYYWGQGTQLTVSS”: the “polyreactivity (PSR sort gate)” value is reported as “low polyreactivity”. As for “QVQLVESGGGLVQAGGSLRLSSAASGSTFWNNVMGSYRQATGKERELVAAITYSGGITYADSVKGRFTISRDNAKNTVYLEMNSLKPEDTAVYYCAADSKYKYDSWGQGTQVTVSS”, the entry is “low polyreactivity”; as for “QVQLVESGGGLVQAGGSLRLSSAASGSTFYYNSMGWYRQAPGKETELVAGITRGGSTNYADSVKGRFTISRDNAKNTVYLQMNSLKPEDSAVYYCAKRTYFRGSSGYYYWGQGTQVTVSS”, “high polyreactivity”; as for “QVQLVESGGGLVQAGGSLRLSSAASGSTSDNAMGWYRQAPGKEMEFVAAITSSGGSTTYADSVKGRFTISRDNAKNTVYLQMNSLKPEDTAVYYCNAGRVYYSNGYDYWGQGTQVTVSS”, “low polyreactivity”.

For “QVQLVESGGGLVQAGGSLRLSSAASGSTYVGYTMGWYRQAPGKERELVAAITRRSGSTYYAVSVKGRFTISRDNAKNTVYLQLNSLKPEDTAVYYCAKDFSRYSRVAHTEHDYWGQGTQVTVSS”, the “polyreactivity (PSR sort gate)” value is “high polyreactivity”. As for “QVQLVESGGGLVQAGGSLRLSSAASGYFNFFYAMGRYRQAPGKERELVASITYRGGSTYYADSVKGRFTLSRDNSKNTVYLQMNRLKPEDTAVYYCNVDGGGPLGPQGFPFDYWGQGTQVTVSS”, the entry is “low polyreactivity”; as for “QVQLVESGGGLVQAGGSLRLSSAASGYIFQYTAMGCYRQAPGKVRELVAAIRYRGTSTYYADSVKGRFTISRDNAKNTVYLQRNSLKPEDTAVYYCAADRVPGRGFFRYGYWGQGTQVTVSS”, “high polyreactivity”. As for “QVQLVESGGGLVQAGGSLRLSSAASGYTFGFYGLGWYRQAPGKERELVAAISRSGGGSTYYADSVKGRFTISRDNAKNSVYLQMNSLKPEDSAVYYCNRDFDDEMWGQGTQVTVSS”, the entry is “low polyreactivity”; as for “QVQLVESGGGLVQAGGSLRLSSAASVIIFSNNAMGWSRQAPGKERELVAAISRSGGSTYYADSLKGRFTISRDNAKNTVYLQMNSLKPEETAVYYCAARARSRYDSWGQGTQVTVSS”, “low polyreactivity”. “QVQLVESGGGLVQAGGSLRLSSADSGLTIKYYAMGWYRQAPGKERELVASILQSGSSTYYADSVKGRFTISRDYAKNTFYLQMNSMKPEDTAVYYCSAPRYCRSYGYDYWGQGTQVTVSS”: the “polyreactivity (PSR sort gate)” value was “high polyreactivity”. As for “QVQLVESGGGLVQAGGSLRLSSAGSGRTFLANAMGWYRQAPGKEREFVAAIDWRTGSTYYADSVKGRFTISRDNAKNTVYLLMNSLKPEDTAVYYCAKDSSSYYYAHFYDWGQGTQVTVSS”, the “polyreactivity (PSR sort gate)” value is on record as “high polyreactivity”. Then “QVQLVESGGGLVQAGGSLRLSSAHSAIIFCLNSMGWYRQEPGKERELVAAITITDGSTYYADSVKGRFTISRDNAKNTVYLQMNSLKPEDTAVYYCNADAIVSPYRLWTVTFYYWGQGTQVTVSS”, with “low polyreactivity”; and “QVQLVESGGGLVQAGGSLRLSSASSGRIFAIYVMGWYRQAHGKERELVAAITSGGNTNYADSVKGRFTISRDNAKNTVYLQINSLKPEDSAVYYCAAFYYRRSFTLSYSSFDYWGQGTQVTVSS”, with “low polyreactivity”. As for “QVQLVESGGGLVQAGGSLRLSSAVSGNTFGPYDMGWYRQAPGKERELVAGNTSGGSTYYADSVKGRFTISLDNAMNTVYLQMNSLKPEDTAVYYCAADYFLWVYWYDYWGQGTQVTVSS”, the entry is “high polyreactivity”; as for “QVQLVESGGGLVQAGGSLRLSSGASGSTFVTYAMGWYRQAPGKEREFVAAISSTGTGRTYYADSVKGRFTISRDNAKNPVYLQMNSLKPEDTAVYYCAADLYGTYDYWGQGTQVTVSS”, “low polyreactivity”.

Consider “QVQLVESGGGLVQAGGSLRLSSPASGFTFYYKGMGWYRQAPGKERELVATITSGGSTYYADSVKGRFTISSDNAKNTVYLQMNSLKPEDTAVYYCNRRISWRYVPTYDYWGQGTQVTVSS”, for which the “polyreactivity (PSR sort gate)” value is recorded as “high polyreactivity”. As for “QVQLVESGGGLVQAGGSLRLSSPASGRIFITNAMGWYRQAPGKERELVASITVSGDSTYYADSVKGRFTISRDNAKNPVYLQMNSLKPEDTAVYYCAADYYALDKVLGNNYWGQGTQVTVSS”, the entry is “low polyreactivity”; as for “QVQLVESGGGLVQAGGSLRLSSTASGFTFKLYAMGWERHATGKERELVAAISSYGGRTYYADSVKGRFTISRDNAKNTVYLQMKSLKPEDTAVYYCKAVRTVNDYHYDYWGQGTQVTVSS”, “high polyreactivity”; as for “QVQLVESGGGLVQAGGSLRLSWAASGFTFDSNAMGWSRPAPGKEREVVAAISWSGASTYADSVKGRFTISRDNAKNTVYLQMNSLKPEDTAVYYCAADDEDVLFDYWGQGTQVTVSS”, “low polyreactivity”. As for “QVQLVESGGGLVQAGGSLRLSWAASGFTFGVNTMGWYRQAPGKERELVADISSGGRTNYADSVKGRFTISRDNAKNTVYLQMNRLKPEDTAVYYCAADNYSGTETDLTTLLDYWGQGTQVSVSS”, the entry is “low polyreactivity”. As for “QVQLVESGGGLVQAGGSLRLSWAASGFTLTRNAMGWYTQAPGKERELVAAISWSGGTTYYADSVKGRFTISRDNAKNPVYLQMNSLKRDDTAVYYCNTASWRAQYYYWGQGTRVTVSS”, the entry is “high polyreactivity”; as for “QVQLVESGGGLVQAGGSLRLSWAASGRIFGRYAMGWYRQAPGKERELVAAISYSGGSTYYADSVKGRFTISRDNAKNTVYLQMNSLKPEDTAVFYCNRYPTYGRTSYVTYYYWGQGTQVTVSS”, “high polyreactivity”; as for “QVQLVESGGGLVQAGGSLRLSWAASGRIIHYNVMGWYRQPPGKERDLVAAIRGGGRSTYYADSVKGRFTISRDNAKNTVYLQMNSLKPEDTAVYYCAKSLSQNTYYHQGYYDDNYWGQGTQVTVSS”, “low polyreactivity”. For “QVQLVESGGGLVQAGGSLRLSWAASGSIFQYVYAMGWYRQAPGKERELVATITWSGGSTYYSDSVKGRFTISRDNAKNTVYLQMNSLKPEDTAVYYCAAESIYYPVAQYYYSFEYWGQGTQVTVSS”, the “polyreactivity (PSR sort gate)” value is on record as “low polyreactivity”.

In the case of “QVQLVESGGGLVQAGGSLRLSWAASGSTFDGYAMGWYRQAPGKERELVAAITRSGGSTYYADSVKGRFTISRDNAKITVYRQINSLKPEDTEVYYSNKYGYKGCVGYDYWGKGTQVTVSS”, the “polyreactivity (PSR sort gate)” value is recorded as “high polyreactivity”. Regarding “QVQLVESGGGLVQAGGSLRLSWAASGSTFYAYAMGCYRQSPGNERELVATISWSGGSTYADSVKGRFTISRDNAKYTVYLQMNSMTPEDTAVYYCNGSGAFYPTQVHPGYTLWSYDDWGQGTQVTVSS”, the “polyreactivity (PSR sort gate)” value is on record as “low polyreactivity”. As for “QVQLVESGGGLVQAGGSLRLSWAAYGRIVKYAMGWYREPPGKERELVAAISGSGGTTYYADSVKGRLTISRDNAKNTVEFHMKSLKPEDTAVYYCAASRPRPPSSRRMVYWGQGSQVTVSS”, the entry is “high polyreactivity”; as for “QVQLVESGGGLVQAGGSLRLSYAASGRTFYRYAMGWYRQAPGKERELVAVITSGSRTKYADSVKGRFTISRDNAKNTVYLQMNSLKPEDTAFYYCAARGLALEGKSSGEYWGQGTQVTVSS”, “high polyreactivity”. As for “QVQLVESGGGLVQAGGSLRLTCAASGFIFCSYAMRWYRQAPGKERELVAAISFRGGSTFYADSVKGRFTISRDNAKNTVYLQMNSLKPEDTAVYYCNKAAYSIHSGLSYYHWGQGTQVTVSS”, the entry is “low polyreactivity”; as for “QVQLVESGGGLVQAGGSLRLTCAASGFIFEEYAKGWYRPAPGKERELVAAISRRGGSTYYADSVKGRFTISRDNATNTVYLQMNSLKPEDTAVDYCATDRRYNYWGQGTQVTVSS”, “high polyreactivity”; as for “QVQLVESGGGLVQAGGSLRLTCAASGFIFNYNTMGWYRQAPGKERELVAGINWSGTRTYYADSVKGRFTISRDNAKNTDYLQMNSLKPEDTAVYYCNAYTQQYRSYGYWGQGTQVTVSS”, “high polyreactivity”. As for “QVQLVESGGGLVQAGGSLRLTCAASGFIFPWNAMAWFRQAPRKERELVAAISFSGGSTYYADSVKGRFTISRDNAKNTVYLQMNSLKPEDTAVYYCAKRTWDLRRTRHYYWGQGTQVTVSS”, the entry is “low polyreactivity”; as for “QVQLVESGGGLVQAGGSLRLTCAASGFIFSLNAMGWYRQAPGKERELVAAISRCGVRTYYADSVKGRFSISRDNAKNTVYLQMNSLKPEDTAVYYCATAGPYYYYSGPQYDYWGQGTHVTVSS”, “high polyreactivity”; as for “QVQLVESGGGLVQAGGSLRLTCAASGFIFTYNAMGWYRQAPGKERELVAAISWSGSRTNYADTVKGRFTISRDNAKHTVYLQMNSLKPEDTAVFYCAAKYKYRTYNYWGQGTQVTVSS”, “high polyreactivity”. With “QVQLVESGGGLVQAGGSLRLTCAASGFIFTYPNAKGWNIQAPGKERELVAAISWRGGGTYYADSVKGRFTISRDNAKNTVYLQMNSLKPEDTAVYYCADYVPAPRRTYNYWGQGTQVTVSS”, the “polyreactivity (PSR sort gate)” value is given as “high polyreactivity”. With “QVQLVESGGGLVQAGGSLRLTCAASGFIFVTDAMGWYRQAPGKERELVAAITNSGGTTYYADSVKGRFTISRDNAKNTVYLQMNSLKPEDPAVYYCNKQWYTATYRESYYWGQGTQVTVSS”, the “polyreactivity (PSR sort gate)” value is listed as “low polyreactivity”. As for “QVQLVESGGGLVQAGGSLRLTCAASGFTFAGYAMGWYRQGPGKERELVAVITSSDSTYYADSVKGRFTISRDNAKNTVYLQMNSLKPEDTAVYYCNAADERSQGWVGYDHWGQCTQVTVSS”, the entry is “low polyreactivity”.

For the origin of these results see the nanobody polyreactivity screen of Harvey et al. (2022).
